Laboratory results reported in article PMC10636138.

Target: SARS-CoV-2 B.1 (Wuhan) RBD
Assay: BLI

## CR3022
  Kd: 22.1 nM
